Measured values: article PMC5587793

T1: His-GapR (Caulobacter crescentus (NA1000?)) (UniProt B8H4R9)
T1 sequence: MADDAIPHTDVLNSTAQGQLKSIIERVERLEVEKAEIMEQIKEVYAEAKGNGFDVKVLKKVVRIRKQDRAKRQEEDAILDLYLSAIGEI

T2: His-GapR (Caulobacter crescentus, UniProt B8H4R9 1-89)
T2 sequence: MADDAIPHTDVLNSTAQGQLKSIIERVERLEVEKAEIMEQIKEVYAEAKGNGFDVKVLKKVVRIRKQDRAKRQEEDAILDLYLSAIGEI

B1: CoriUP oligonucleotide (dsDNA)
DNA 1: GCAGGGCAAGTGGTTAAGCATATGTTAACGGATGATCCACAGG
DNA 2: CCTGTGGATCATCCGTTAACATATGCTTAACCACTTGCCCTGC
modifications: 3 bp up-replication mutation

Key:
[1] = target: T1, His-GapR (Caulobacter crescentus (NA1000?)); test: EMSA
His-GapR = target: T2, His-GapR; test: EMSA

Molecule	Kd [1] [µM]	binding result (His-GapR)
Cori DNA (EMSA of Figure S6)	0.01	–
B1	–	binds
